Drawing on publication PMC11097922, this text covers PLA signal for one substance.

The assay addresses 220 kDa ankyrin-B-GFP. Briefly: proximity ligation.

Substance “NaV1.2 II-III loop-3xHA (wild type) (from UniProt Q99250 991-1211) (domain or fragment)” returned a PLA signal of 11.6 a.u.
